In the supplement of paper PMC10567573:

B1: PTPRD (parent)
chain: FICQATGDPRPKIVWNKKGKKVSN
B2: PWWP2B (parent)
chain: TIRLRPRQVLCEKCKSTLSPPEAS

Variants of: B1
Experiment: protein stability index of a GFP-peptide fusion (GPS, HEK-293T) (PSI 1-6); higher = more stable
Details: c terminus: a fixed tail appended
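Further: lentivirally expressed fusions sorted by FACS into six bins by GFP to DsRed ratio, PSI derived from sequencing read proportions per bin multiplied by bin number.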

Protein stability index, by site and new letter:
W15: N 2.53 | E 2.67 | I 2.26 | G 2.26 | A 2.48 | M 2.9 | Q 2.73 | D 2.73 | V 2.76 | P 2.56 | C 2.57 | F 2.5 | Y 2.25 | R 2.6 | H 2.15 | T 2.85 | K 2.12 | L 2.16
G19: N 1.56 | P 1.74 | T 2.14 | D 1.71 | M 2.22 | H 1.9 | I 1.53 | K 1.87 | Q 2.4 | F 2.51 | R 2.05 | E 1.8 | C 1.26 | Y 1.27 | V 1.71 | W 1.84 | S 1.7 | A 2.23
K17: I 1.31 | M 1.78 | F 1.56 | G 1.77 | Y 1.68 | L 1.78 | H 1.96 | A 1.37 | T 1.55 | P 2.81 | S 1.79 | N 2.31 | C 1.92 | D 1.74 | Q 1.84 | V 1.9 | E 1.34 | R 2.21 | W 2.78
I13: A 1.83 | P 1.75 | L 1.45 | K 1.74 | T 1.73 | G 2.6 | Q 2.02 | F 1.62 | H 1.74 | C 1.99 | N 1.88 | V 2.97 | S 1.52 | W 1.87 | Y 1.86 | E 2.1 | M 1.51 | R 2.46
K12: P 1.96 | S 2.17 | G 2.28 | V 1.61 | A 1.87 | T 2.26 | M 1.58 | R 1.44 | D 1.18 | Y 1.41 | L 3.35 | H 1.86 | W 1.6 | N 1.95 | I 1.89 | Q 1.94 | E 1.52 | C 1.9

Variants of: B2
Experiment: as above
Details: c terminus: a fixed tail appended

Protein stability index: each site, then its substitutions
I2: M 2.76 | R 3.11 | K 2.98 | Y 3.04 | H 3.54 | D 3.68 | S 3.64 | L 3.35 | Q 3.63 | E 3.67 | A 3.61 | V 3.24 | F 3.54 | W 3 | N 4.05 | C 3.7 | P 4.11 | G 3.27 | T 3.85
L4: T 3.85 | A 2.99 | H 3.23 | F 2.77 | C 3.45 | P 3.45 | I 2.79 | N 3.58 | K 3.58 | M 3.32 | G 3.63 | S 3.6 | Q 3.04 | W 2.31 | E 3.79 | Y 2.87 | V 3.22 | D 4.18 | R 3.03
T1: V 2.78 | G 3.09 | W 2.12 | D 3.76 | Q 3.11 | S 2.98 | E 3.55 | P 3.43 | M 2.23 | I 2.44 | N 3.63 | K 2.98 | F 1.72 | R 2.65 | A 2.59 | H 2.8 | C 2.91 | Y 1.76 | L 2.28
R3: Y 2.82 | L 2.71 | E 4.37 | C 2.61 | D 3.82 | G 3.09 | H 3.09 | F 2.02 | A 3.69 | P 3.81 | V 2.7 | S 3.37 | W 2.98 | K 3.99 | M 3.14 | Q 3.61 | N 3.8 | T 3.27 | I 3.04
